Test: yeast display, Sf9 membrane polyspecificity reagent, FACS + sequencing; frameworks hold sequencing errors
Outline: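 In a synthetic yeast display library (Saccharomyces cerevisiae BJ5465), nanobody expression was induced with galactose for 36–48 hours. FACS gates were set low and high (top ~1%) using anti-HA fluorescence for expression and streptavidin fluorescence for binding of the Sf9 membrane reagent. Each polyreactivity label is drawn from the gate of origin.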

Row | Sequence | polyreactivity (PSR sort gate)
1 | QVQHVESGGGLVQAGGSLRLSCAASGRIFYRNAMGWYRQAPGKERELVASITSAGRTYYADSVKGRFTISRDNAKNTVYLQMNSLKPEDTAVYYCAVRVAVLLNLYGYWGQGTQVTVSS | low polyreactivity
2 | QVQLVESGGGLVQAGCSLRLSCAASGSIFSTYAMGWYRQAPGKERELVAAITSDGTYADSVKGRFTISRDNARNTVYLQMNSLKPEDTAVYYWAAYYPYTRHGDYWGQGTQVTVSS | low polyreactivity
3 | QVQLVESGGGLVQAGGSLRLSCAASGFTFYGYAMGWYRQAPGKERELVAAINSGAITNYADSVKGRFTISRDNAKNTVYLQMNSLKPEDTAVYYCAASYRRLTGVGADEYWGQGTQVTVSS | high polyreactivity
4 | QVQLVESGAGLVQAGGSLRLSCAASGSTFGKYAMGWYTQAPGKEMELVARIDSGDGTYYADSVKGRFTISRDNAKNTVYLQMNSLKPEDTAVYYCAARYGARRLTYFWPQYARYDYWGQGTKVTVSS | high polyreactivity
5 | QVQLVESGGGLVQAGGSLRLSCAASGSTFLYYAMGWYRQAPGKERELVAVISWSGVSTYYADSVKGRFTISRDNAKNTVYLQMNSLKPEDTPVYYCNTGNQYIRTYGYWGQGSQVTVSS | low polyreactivity
6 | QVQLVESGGGLVQAGGSLRLSCAASGIIFYDYAMGWYRQAPGKERELVAAITSGGSTNYADSVKGRFTISRDNAKNTVYLQMNSLKPEDTAVYYCAATYWSWIPLRFYRGQGTQVTVSS | low polyreactivity
7 | QVQLVESGGGLVQAGGSLRLSCAASGFIFKHYAMGWYRQAPGKERELVAAITSSGGNTYYADSVKGRFTISRDNAKNTVYLQMNSLKPEDTAVYYCNARFRTLYWGQGTQVTVSS | high polyreactivity
8 | QLQLVESGGGLVQAGGSLRLSCAASGFIDAYTMGWYRQAPGKERELVAAITWSGGRTYYADSVKGRFTISRDNAKNTVYIQRNSLKPEDNAVYYCAKDVTPYSPDEDYWGQGSQVTVSS | low polyreactivity
9 | QVQLVESGGGLVQAGGSLRLSCAASGLTFYRYAMGWYRQAPGKERELVAAISFSGGSTYYADSVKGRFTISRDNAKNTVYLQMNSLKPEDTAVYYCAKVDTPGSQRYITPEEGPEYDYWGQGTQVTVSS | high polyreactivity
10 | QVQLVESGGGLVQAGGSLRLSCAASGRIFGYYAMGWYRQAPGKERELVAAIRRSGGSTYADSVKGRFTISRDNAKNTVYLQMNSLKPEDTAVYYCAAWIYEYDYWGQGTQVTVSS | high polyreactivity
11 | QVQLVESGGGLVQAGGSLRLSCAASGFIFYRYAMGWYRQAPGKERELVAAISWSGGTTYYADSVKGRFTISRDNAKNTVYLQMNSLKPEDTAVYYCAARSVPSPERGFYYWGQGTQVTVSS | high polyreactivity
12 | QVQLVESGGGLVQAGGSLRVSCAASGSTFYEYAMGWYRQAPGKERELVAAITRGGTTYYADSVKGRFTISRDNAKNTDYYQMNSLKPEDTAVYYCAARTRGFTKLGYWGQGTQVTVSS | high polyreactivity
13 | QVQLVESGGGLVQAGGSLRLSCAASGSIFEIYAMGWYRQAPGKERELVAAISWSGGRTYYADSVKGRFTISRDNAKNTVYLQMNSLKPEDTAVYYCNAGQWRYPGLYYYWGQGTEVTVSS | high polyreactivity
14 | QVQLVESGGGLVQAGGSLRLSCAASGLTILDNAMGWYRQAPGKERELVATISGGGSTYYADSVKGRFTISRDNAKNTVYLQMNSLKPEDTAVYYWNAAYVGGPWWYRYTYNYWGQGTQVTVSS | low polyreactivity
15 | QVQLVESGGGLVQAGCSLRLSCAASGSTLYTYAMGWYRQAPGKERELVATISWSGSSTYYADSVKGRFTISRDNAKNTVYLQMNSLKPEDTAVYYCAAQYHYWYRLDYWGQGTQVTVSS | high polyreactivity
16 | QVQLVESGGGLVQAGGSLRLSCAASGSIFGYNARGWYRQAPGKERELVATINWSGTSTYYAASVKGRFTISRDNAKNTVYLQMNSLKPVDTAVYYCNAKYLWYGRYNYWGQGTQVTVSS | high polyreactivity
17 | QVQLVESGGGLVQAGGSLRLSCAASGRIFNRNAMGWYRQPPGKERELVAAISWSGTRTYYADSVKGRFTISRDNAKNTVYLQMNSLKPEDTAVYYCAAGASLYSYYGFLPYDYWGQGTQVTVSS | high polyreactivity
18 | QVQLVESGGGLVQAGGSLRLSCAASGLTFAGNAMGWYRQAPGKEREFVATITWSDGSTRYADSVKGRFTISRDNAKNTVYLQMNSLKPEDTAVYYCNTQYPDYFYEFNYWGQGTQVTVSS | low polyreactivity
19 | QVQLVESGGGLVQAGGSLRLSCAASGFTFYKNTMGWYRQAPGKERELVAAISSSGSSTYYADSVKGRFTISRDKAKNTVYLQMNSLKPEDTAVYYCAAGRFAYHDDYWGQGTQVTVSS | high polyreactivity
20 | QVQLVESGGGLVQAGGSLRLSCAASGSTFAVYSMGWYTQAPGKERELVADSSYSGGSTYYADSVKGRFTISRDNAKNTVYLQMNSLIPEDTAVYYCAADWYDWLSTYDDWGQGTQVTVSS | low polyreactivity
21 | QVQLVESGGGLVQAGGSLRLSCAASGFTFIRYAMGWYRQAPGKERELVAAIRGTGTSTYYADSVKGRFTISRDNAKNTVYLQMNSLKPEDTAVYYCNKVSGRSPYTRYDYWGQGTQVTVSS | low polyreactivity
22 | QVQLVESGGGLVQAGGSLRLSCAASGSIFGDNAMGWYRQAPGKERELVAAINYNGGRTYYADSVKGRFTISRDNAKNTVYLQMNSLKPEDTAVYYCAKDNYQAPVQQYPFDYWGQGTQVTVSS | low polyreactivity

Row | Sequence | polyreactivity (PSR sort gate)
23 | QVQLVESGGGLVQAGGSLRLSCAASGTIFQQYAMGWYRQAPGKERELVAAISYSGGTTYYADSVKGRFTISRDNAKNTVYLQMNSLKPEYTSVYYCAAYYPSGSYDYYWGQGTQVTVSS | low polyreactivity
24 | QVQLVESGGGLVQAGGSLRLICAASGRIFLYYAMGWYRQAPGKERELVAAITRGGGTTYADSVKGRFTISRDNAKNTVYLQMNSLKPEDTAVYYCAKRYSYYPGFDYWGQGTQVTVSS | high polyreactivity
25 | QVQLVESGGGLVQAGGSLRLSCAASGSTFSANDMGWDRQAPGKEREFVAAITTSDDSTYYADSVKGRYTISRDNAKNTVYLQMNSLKPEDTAVYYCNAYSGYSFFGLCFFYKYDYWGQGTQVTVSS | low polyreactivity
26 | QVQLVESGGGLVQAGGSLRLSCAASGFIFNIYAMGWYRQAPGKERELVAAITFSGGSTYYADSVKGRFTISRDNAKNTVYLQMNSLKPEDTAVYYCAADYLSEYTTYDYWGQGTQVTVSS | low polyreactivity
27 | QVQLVESGGGLVQAGGSLRLTCAASGSTFTAYAMGWYRQAPGKDLELVDAINWSGGTTYYADSVKGRFTISRDNAKNTVYLQMNSLKPEDTAVYYCPVDGNFFGEVRPYDYWGQGTQVTLSS | low polyreactivity
28 | QVQLVESVGGLVQAGGSLRLSCAASGITFLQYAMGWYIQAPGKERELVATINSGGSTNYADSVKGRFTISRDNAKNTVYLQMNSLKPEDTAVYYCAADYGSDYTKGDYWGQGTQVTVSS | low polyreactivity
29 | QVQLVESGGGLVQAGGSLRLSCAASGRILFRYGMGWYRQAPGKERELVARISWSGGNTHYADSVKGRFTISRDNAKNTVYLQMNSLKPEDTAVYYCNAYYTYWYPRYDYWGQGTQVTVSS | low polyreactivity
30 | QVQLGDSGGGLGQAGGSLRLSCAASGSTFASDTMGWYRQEPGKERYLVATISRPGGTTNYADSVKGRFTISRDNAKNTVYLQMNSLKPEDTAVFDCARRYPRYDFAYGYDYWGQGTQGTVSS | high polyreactivity
31 | QVQLVESGGGLVQAGGSLRLSCAASGSILDWNAMGWYRQAPGKVRELDAAITNGVSTHYADSVKGRFTISRDNAKNTVYFQMNSLKPEETAVYYCAKAFWWRPEWWLRSARGSWGQGTQVTVSS | low polyreactivity
32 | QVQRVESGGGLVQAGGSLRLSCAASGRTFYLNAMGWYRQATGKERQLVAAINRGTRTYYADSVKGRFTISRDNAKNTVYLQMNSVKPEDTAVYYCAAVPRYYYSSSYTMDYWGQGTQVTVSS | high polyreactivity
33 | QVQLVESGGGLVQAGGSLRLSCAASGSIFRYYAMGWYRQAPGKEREFVASITYRGGRTYYADSVKGRFTISRDNAKNTVYLQMNSLKPEDTAVYYCAARTRAGAWTSKYLDYWGQGTQVTVSS | high polyreactivity
34 | QDQLVDSGGGLVQAGGSLRLSCAASGRISGYYAMGWYRQAPGKERELVASITYRGGSTYYADSVKGRFTISRDNAKNTVYLQINSLKPEDTAVYSCNFRYRPNRGSIGQPNSGKNWYDYWGLGTQVTVSS | high polyreactivity
35 | QVQLVESGGGLVQAGGSLRLSCAASGFTFYRNAMGWYRQAPGKERELVASISRSGGSTYYADSVKGRFTNSRDNAKNTVYLQMNSLKPEDTAVYYCAADLWWIYPHKYYYWGQGTQVTVSS | high polyreactivity
36 | LVLLVESGGGLVQAGGSLRLSCAASGSSLDWYAMGWYRQAPGNVRELVASLSYSGGTTYYADSVTVRFTISRDNAKNTVYLQMISLKPDDTAVDYCATDLLNNVDYDYWGQGTQVTVSS | low polyreactivity
37 | QVQLVESGGGLVQAGGSHRLSCAASGSTFRVYAMGGYRQAPGKERELVARISITGGTTRYADSVKGRFTISRDNAKNTVYLQMNSLKPEDTAVYYCNADYDWYYWYLYKYPFDYWGQGTQVTVSS | low polyreactivity
38 | QVQLVESGGGLVQAGGSLRLSCAASGRIFGYYAMCWYRQAPGKERELVARITWYGGDTYYADSVKGRFTISRDNAKNTVYLQMNSLKPEHTAVYYCGADFVFYRQPDTYFYPHDYWGQGTQVTVTS | low polyreactivity
39 | QVQLVESGGGLVQAGGSLRLSCAASGSNFGWYTMGWYRQAPGKERELVAAITSRGTRTSYADSVKGRFTISRDYAKNTVYLQMNSLKPEDTAVYYCAARVFRGLGEYYWGQGTQVTVSS | high polyreactivity
40 | QLQLVESGGGLVQARGSLRLSCAASGYIFGSYAMGWDRQAPGKERELVAANSKSGGSTYYADSVKGRFTISRDYAKNTVYLQMNSLKPEDTAVYYCAAAGIGGGGWGQGTQVTVSS | low polyreactivity
41 | QVQLVETGGGLVQAGGSLRLSCAASGFIFHPNTMGWYSPAPGKERELVAGISYSGGITYTDSVKGRFTISRDNAKNTVYLQMNSLKPEDTAVYYCSAGDKYHYYWGQGTQVTVSS | low polyreactivity
42 | QVQLVESGGGLFQAGGSLRLSCAASGIIFSSNAMGWSRQAPGKERELVAAISSSGSRTYYAASVKGRFTISRDNAKNTVYFQMNSLKPEDTAVYYCAARTISSLNHHGYWGQGTQVTVSS | high polyreactivity
43 | QVQLVESGGGLVQAGGSLRLSCAASGFIFVQNVMGWYRQAPGKERELVAAITWRGTSTYYADSVKGRFTISRDNAKNTVYLLMNSLKPEDTAVYDWNVDLQEDCEEYDYWGQGTQVTVSS | low polyreactivity
